The Human Domainome abundance scans (Beltran et al. 2025)

B1: Tripartite motif-containing protein 6, residues 93 to 134; numbered along this chain, Q9C030 (parent)
chain: KAVLCADHGEKLQLFCQEDGKVICWLCERSQEHRGHHTFLVE

Variants of: B1
Test: abundance fitness (aPCA) (normalised: wild type 0, dead -1); higher = more abundant; growth selection in yeast, the domain comes from the species named
Conditions: Homo sapiens

Abundance fitness of substitutions, site by site:
V3: K 0.046 | L -0.437 | M 0.141 | P -0.485 | Q -0.306 | R -0.273 | S -0.003 | T 0.005 | W -0.353 | Y -0.153
L4: A -0.165 | C -0.189 | D -0.223 | E -0.126 | F 0.141 | G -0.175 | K -0.148 | M 0.195 | N 0.224 | Q -0.272 | R -0.082 | S -0.217 | T -0.066 | V 0.011 | W -0.199 | Y 0.047
C5: A -1.06 | D -0.807 | E -0.615 | F -0.871 | G -0.664 | H -0.768 | K -0.789 | L -0.999 | M -0.769 | N -0.922 | P -0.777 | Q -0.812 | R -0.978 | T -0.954 | V -0.839 | W -1.06 | Y -0.602
A6: C -0.156 | D -0.11 | E -0.244 | F -0.158 | G -0.196 | H -0.43 | I -0.321 | K -0.011 | L -0.215 | N -0.306 | P -0.056 | Q -0.087 | R -0.035 | S 0.055 | T -0.242 | W -0.48 | Y -0.19
D7: A 0.095 | C 0.055 | E 0.048 | F -0.38 | G -0.291 | I -0.034 | K -0.007 | L 0.132 | M 0.091 | N -0.085 | P -0.297 | Q 0.172 | R -0.06 | S 0.006 | T 0.165 | W -0.173
H8: A -0.706 | C -0.584 | E -0.518 | F -1.09 | G -0.691 | I -0.74 | K -0.419 | L -1.08 | N -0.807 | P -0.819 | Q -0.275 | R -0.77 | S -0.901 | T -0.69 | V -0.852 | W -1
G9: A -0.061 | C -0.237 | D -0.087 | E -0.179 | H -0.287 | L -0.238 | M -0.162 | N 0.332 | Q -0.032 | R -0.066 | S -0.042 | T -0.407 | V -0.575 | W -0.301
E10: A -0.185 | C -0.163 | D -0.075 | F -0.01 | G -0.165 | H -0.442 | Q -0.1 | R -0.019 | S -0.319 | W -0.406 | Y -0.031
K11: A 0.029 | D 0.142 | E 0.103 | F -0.113 | G -0.012 | I -0.073 | L -0.2 | N -0.007 | P 0.315 | Q -0.3 | R -0.042 | S 0.155 | T -0.101 | V -0.055 | W 0.339
L12: A 0.204 | C 0.092 | E -0.109 | F -0.11 | G 0.117 | I -0.231 | K -0.004 | M 0.195 | N 0.381 | P 0.151 | Q -0.008 | R 0.05 | S 0.202 | T -0.084 | V -0.06
Q13: A 0.004 | D -0.109 | E 0.142 | G -0.071 | I -0.086 | K 0.128 | M -0.274 | N 0.21 | P -0.256 | R -0.135 | S 0.058 | T 0.124 | V -0.148 | Y -0.217
L14: A -0.186 | C -0.198 | D -0.087 | E -0.195 | F -0.064 | G -0.082
